Biological target: the molecule itself
Experiment: SEC; Superdex 200 10/300 in 20 mM Tris pH 8.0, 100 mM NaCl, 1 mM DTT, 1 mM EDTA; peak fractions re-chromatographed under identical conditions; monomer to dimer

B1: GDAP1 T288X-6xHis (domain or fragment, human, UniProt Q8TB36 1-287, looked up)
chain: MAERQEEQRGSPPLRAEGKADAEVKLILYHWTHSFSSQKVRLVIAEKALKCEEHDVSLPLSEHNEPWFMRLNSTGEVPVLIHGENIICEATQIIDYLEQTFLDERTPRLMPDKESMYYPRVQHYRELLDSLPMDAYTHGCILHPELTVDSMIPAYATTRIRSQIGNTESELKKLAEENPDLQEAYIAKQKRLKSKLLDHDNVKYLKKILDELEKVLDQVETELQRRNEETPEEGQQPWLCGESFTLADVSLAVTLHRLKFLGFARRNWGNGKRPNLETYYERVLKRK
notes: GDAP1, human (recombinant human GDAP1), truncated by a stop in place of T288 (T288X), lacks TMD and HD1; cloned into vector pFL of the MultiBac system; not shown: His6, C-terminal, kept
Question: How did the “stoichiometry N” value turn out when B1 was run?
Answer: The value was 2.

B2: GDAP1 T318X-6xHis (domain or fragment, human, UniProt Q8TB36 1-317, looked up)
chain: MAERQEEQRGSPPLRAEGKADAEVKLILYHWTHSFSSQKVRLVIAEKALKCEEHDVSLPLSEHNEPWFMRLNSTGEVPVLIHGENIICEATQIIDYLEQTFLDERTPRLMPDKESMYYPRVQHYRELLDSLPMDAYTHGCILHPELTVDSMIPAYATTRIRSQIGNTESELKKLAEENPDLQEAYIAKQKRLKSKLLDHDNVKYLKKILDELEKVLDQVETELQRRNEETPEEGQQPWLCGESFTLADVSLAVTLHRLKFLGFARRNWGNGKRPNLETYYERVLKRKTFNKVLGHVNNILISAVLPTAFRVAKKRAP
notes: GDAP1, human (recombinant human GDAP1), truncated by a stop in place of T318 (T318X), lacks the TMD, keeps HD1; cloned into vector pFL of the MultiBac system; the methods print the name as T3188X; also called GDAP1 T3188X; not shown: His6, C-terminal, kept
Question: B2 was tested. Which “stoichiometry N” value did it give?
Answer: Its value is 2.
